The target of one data set is E. coli Hfq (Escherichia coli, UniProt P0A6X3 1-102). As to the kind of experiment: fluorescence anisotropy.
For a further data set, the target named is S. aureus Hfq (Staphylococcus aureus, UniProt A0A0H3JV59 1-77). As to the kind of experiment: fluorescence anisotropy. On the technique in general: Fluorescence polarisation rises when a labelled molecule tumbles more slowly, as on binding a larger partner.

B1: Cy3-mini-sRNA (structured_RNA)
RNA: GUGGUCAGUCGAGUGGCUUCCGUCCAUUUCGGACGUUUUUU
Consider B1, for which the Kd (usually the concentration at which binding is half-saturated) with E. coli Hfq was found to be 2.7 ± 0.8 nM; with S. aureus Hfq, 100 nM.

Source of the values: paper PMC4884477.
